Literature values in paper PMC11631806.

Target: Cys32 (UniProt position 32, FSATWCGPCKM)
Conditions: not stated (reduced dithiol form implied by thiol titration)

For “Thioredoxin (cytosolic Trx, Trx1) (Homo sapiens (inferred; the article does not name the species for these values))”, the pKa is listed as 6.3 ± 0.1.
